According to US8546537B2, “Streptavidin having low immunogenicity and use thereof” (The University of Tokyo, priority 2009, dated 2013):

Legend:
[1] = Thermal shift assay of streptavidin proteins; type: physicochemical; conditions: at 100° C., 10 μM protein, 1×PBS, guanidine-HCl 0 to 2 M, SYPRO Orange
Method: The following 5 types of proteins, a native streptavidin, mcSA040, mcSA072, mcSA314 and mcSA414, which had been purified in accordance with Example 2, were subjected to a thermal shift assay (Vedadi, (2006), Proc Natl Sci USA., 103(43), 15835-15840). Each sample was prepared in a real-time PCR tube (PCR Tube Strip, Flat Cap Strip; manufactured by BIO-RAD), so that the samples could have the following final concentrations. That is, SYPRO Orange was 5000-fold diluted, the concentration of each protein was set at 10 μM, and the buffer was set at 1×PBS. Moreover, for the purpose of accelerating the heat denaturation of each protein, the concentration of a guanidine-HCl solution was set at 0 M, 0.5 M, 1M and 2 M as a final concentration. The reaction volume was set at 20 μl. The CFX96 Real-Time PCR detection system (manufactured by BIO-RAD) was used as a measurement device. As a program mode of the CFX96 Real-Time PCR detection system, a program mode for use in FRET detection was used. The reaction and detection were carried out by a program for increasing the temperature by 0.5° C. every 10 seconds.

[2] = Kinetics analysis of interaction between streptavidin protein and biotin using Biacore biosensor; type: binding; conditions: for Association rate constant ka / Dissociation rate constant kd: Biacore 3000, biotinylated mouse antibody captured, 1:1 binding model; for Kd: Biacore 3000, obtained from kd/ka, read-out: Dissociation constant Kd
Method: As a ligand (a substance to be attached to a sensor chip) used for a Biacore (registered trademark) biosensor, an anti-mouse IgG antibody (manufactured by GE Healthcare Biosciences) was used. On the other hand, as analytes (substances to be supplied to the flow channel system), a biotinylated mouse antibody and various types of mutant streptavidins were prepared, and intermolecular interaction was then analyzed using Biacore (registered trademark) 3000 (a biosensor based on the principle of surface plasmon resonance; manufactured by GE Healthcare Biosciences). The anti-mouse IgG antibody was immobilized on all of the flow cells of a CM5 sensor chip according to an amine coupling method. The amount of the antibody immobilized on each flow cell was 8000 RU. Subsequently, as references, non-biotinylated mouse antibodies were captured onto Flow Cells 1 and 3, and biotinylated mouse antibodies were captured onto Flow Cells 2 and 4. Various types of streptavidins were loaded in a running buffer (HBS-EP; manufactured by GE Healthcare Biosciences) on Flow Cells 1 and 2, or 3 and 4, at a flow rate of 20 μl/min for 2 minutes. Thereafter, dissociation of each sample was monitored for 7 minutes. Thereafter, a reproduction operation was carried out using a 10 mM glycine-HCl buffer (pH 1.7) (manufactured by GE Healthcare Biosciences), and repeat measurement was then carried out. Using the analysis software BIAevaluation ver. 4.1, a reaction kinetics analysis was performed on a 1:1 binding model based on the obtained sensorgram, so as to calculate an association rate constant (ka) and a dissociation rate constant (kd). A dissociation constant (Kd) was obtained from kd/ka.
The results of the kinetics analysis of the intermolecular interaction of a recombinant streptavidin and a biotin, which was carried out using Biacore (registered trademark) 3000 (a biosensor based on the principle of surface plasmon resonance; manufactured by GE Healthcare Biosciences), are as shown in Table 2.

ROBO1 = ROBO1 (Homo sapiens, UniProt Q9Y6N7); assay: Isothermal Titration calorimetry (ITC) of B5209B mouse-scFv-mcSA414 and ROBO1; type: binding
Excerpt: By Isothermal Titration calorimetry (ITC), the interaction of B5209B mouse-scFv-mcSA414 and ROBO1 was subjected to […] analysis.

[3] = Differential Scanning calorimetry (DSC) thermal stability; type: physicochemical; conditions: PBS
Method: By Differential Scanning calorimetry (DSC), the thermal stability of B5209B mouse-scFv-mcSA414 was evaluated. PBS was used as a solvent. […] Accordingly, the temperature necessary for denaturation of the scFV domain of B5209B mouse-scFv-SA is assumed to be Tm 51.4° C., and the temperature necessary for the complete denaturation of a single molecule thereof is assumed to be Tm 108° C. Moreover, since the temperature for dissociation of a streptavidin domain tetramer was not detected, it is assumed that the streptavidin was completely denatured without the dissociation of a tetramer.

Sequence of ROBO1 (Q9Y6N7 26-1651, species assumed): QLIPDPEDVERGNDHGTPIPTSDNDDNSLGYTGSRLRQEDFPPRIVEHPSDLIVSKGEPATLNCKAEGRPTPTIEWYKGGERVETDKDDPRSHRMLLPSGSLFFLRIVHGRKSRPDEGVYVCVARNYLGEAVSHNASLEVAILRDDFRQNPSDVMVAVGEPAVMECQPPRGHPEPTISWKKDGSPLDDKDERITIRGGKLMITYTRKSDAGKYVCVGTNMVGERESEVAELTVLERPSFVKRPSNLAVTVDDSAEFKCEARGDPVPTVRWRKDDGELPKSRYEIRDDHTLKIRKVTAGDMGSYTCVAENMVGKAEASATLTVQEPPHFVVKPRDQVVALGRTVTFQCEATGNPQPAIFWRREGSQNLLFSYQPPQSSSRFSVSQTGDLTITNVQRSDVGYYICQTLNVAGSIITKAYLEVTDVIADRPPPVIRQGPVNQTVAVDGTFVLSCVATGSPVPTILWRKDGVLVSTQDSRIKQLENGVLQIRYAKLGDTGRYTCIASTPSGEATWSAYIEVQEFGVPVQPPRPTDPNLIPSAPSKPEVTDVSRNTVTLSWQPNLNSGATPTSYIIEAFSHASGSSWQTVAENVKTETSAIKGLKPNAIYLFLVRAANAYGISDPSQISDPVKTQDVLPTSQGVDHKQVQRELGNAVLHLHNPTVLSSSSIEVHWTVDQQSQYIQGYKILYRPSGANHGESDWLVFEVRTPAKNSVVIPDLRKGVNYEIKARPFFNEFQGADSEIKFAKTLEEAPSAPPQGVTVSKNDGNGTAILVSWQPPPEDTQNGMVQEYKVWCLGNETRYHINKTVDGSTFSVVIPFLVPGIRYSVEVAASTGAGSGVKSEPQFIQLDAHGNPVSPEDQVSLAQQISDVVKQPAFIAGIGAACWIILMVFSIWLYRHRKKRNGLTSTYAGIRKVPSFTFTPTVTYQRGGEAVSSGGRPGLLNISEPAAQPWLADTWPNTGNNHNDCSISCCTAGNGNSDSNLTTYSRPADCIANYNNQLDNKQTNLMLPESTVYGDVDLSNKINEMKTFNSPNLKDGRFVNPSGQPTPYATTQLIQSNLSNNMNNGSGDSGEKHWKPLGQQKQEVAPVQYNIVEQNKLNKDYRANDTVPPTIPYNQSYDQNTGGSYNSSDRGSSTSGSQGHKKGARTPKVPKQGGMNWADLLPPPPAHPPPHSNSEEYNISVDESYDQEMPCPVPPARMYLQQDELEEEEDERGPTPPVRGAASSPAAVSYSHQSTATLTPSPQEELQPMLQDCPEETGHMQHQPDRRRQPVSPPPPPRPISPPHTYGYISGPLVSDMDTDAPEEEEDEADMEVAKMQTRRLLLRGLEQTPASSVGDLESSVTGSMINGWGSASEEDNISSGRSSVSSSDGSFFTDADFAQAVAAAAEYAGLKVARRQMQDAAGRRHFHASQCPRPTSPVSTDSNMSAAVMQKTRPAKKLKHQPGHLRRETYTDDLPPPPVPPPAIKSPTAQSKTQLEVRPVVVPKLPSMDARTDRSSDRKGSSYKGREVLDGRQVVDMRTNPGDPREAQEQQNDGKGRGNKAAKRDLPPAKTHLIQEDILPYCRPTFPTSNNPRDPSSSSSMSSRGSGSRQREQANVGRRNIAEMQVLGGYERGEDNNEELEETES

| Molecule | Dissociation rate constant kd [2] | Kd [2] [pM] | Association rate constant ka [2] | also measured |
| --- | --- | --- | --- | --- |
| mcSA040: mutant core streptavidin with Y83S, R84K, E116Q (protein) core streptavidin subunit: AEAGITGTWYNQLGSTFIVTAGADGALTGTYESAVGNAESRYVLTGRYDSAPATDGSGTALGWTVAWKNNSKNAHSATTWSGQYVGGAEARINTQWLLTSGTTQANAWKSTLVGHDTFTKVKPSAAS | – | – | – | thermal stability compared with native streptavidin [1]: thermal stability equivalent to that of the native streptavidin |
| mcSA424: mutant core streptavidin with Y22T, Y83S, R84K, E101D, R103K, E116Q (protein) core streptavidin subunit: AEAGITGTWTNQLGSTFIVTAGADGALTGTYESAVGNAESRYVLTGRYDSAPATDGSGTALGWTVAWKNNSKNAHSATTWSGQYVGGADAKINTQWLLTSGTTQANAWKSTLVGHDTFTKVKPSAAS | 1.12 × 10^−4 S^−1 | 845 | 1.32 × 10^5 M^−1 S^−1 | – |
| mcSA224: mutant core streptavidin with Y22T, Y83A, R84K, E101D, R103K, E116Q (protein) core streptavidin subunit: AEAGITGTWTNQLGSTFIVTAGADGALTGTYESAVGNAESRYVLTGRYDSAPATDGSGTALGWTVAWKNNAKNAHSATTWSGQYVGGADAKINTQWLLTSGTTQANAWKSTLVGHDTFTKVKPSAAS | 1.01 × 10^−4 S^−1 | 481 | 2.11 × 10^5 M^−1 S^−1 | – |
| mcSA030: mutant core streptavidin with Y83S, R84K, E116N (protein) core streptavidin subunit: AEAGITGTWYNQLGSTFIVTAGADGALTGTYESAVGNAESRYVLTGRYDSAPATDGSGTALGWTVAWKNNSKNAHSATTWSGQYVGGAEARINTQWLLTSGTTNANAWKSTLVGHDTFTKVKPSAAS | 1.55 × 10^−4 S^−1 | 399 | – | – |
| mcSA020: mutant core streptavidin with Y83A, R84K, E116Q (protein) core streptavidin subunit: AEAGITGTWYNQLGSTFIVTAGADGALTGTYESAVGNAESRYVLTGRYDSAPATDGSGTALGWTVAWKNNAKNAHSATTWSGQYVGGAEARINTQWLLTSGTTQANAWKSTLVGHDTFTKVKPSAAS | 1.60 × 10^−4 S^−1 | 427 | – | – |
| mcSA214: mutant core streptavidin with Y22S, Y83A, R84K, E101D, R103K, E116Q (protein) core streptavidin subunit: AEAGITGTWSNQLGSTFIVTAGADGALTGTYESAVGNAESRYVLTGRYDSAPATDGSGTALGWTVAWKNNAKNAHSATTWSGQYVGGADAKINTQWLLTSGTTQANAWKSTLVGHDTFTKVKPSAAS | 1.21 × 10^−4 S^−1 | 459 | 2.64 × 10^5 M^−1 S^−1 | – |
| B5209B mouse-scFv-mcSA414: fusion of anti-ROBO1 monoclonal antibody B5209B mouse scFv and mcSA414, SEQ ID NO: 16 (protein, listed as Mus sp.) MAEVQLVESGGGVVQPGGSLKLSCAASGFTFSTYDMSWVRQTPDKRLELVATINSNGGSTYYPDSVKGRFTSSRDNAKNILYLQMSSLKSEDTAMYYCAREALLRPPYYALDYWGQGTSVTVSSAGGGGSGGGGSGGGGSDILDIQMTQSPASLSASVGETVTITCGASENIYGALTWYQRKQGKSPQLLIYGAINLADDKSSRFSGSGSGRQYSLKISSLHPDDVATYYCQNVLSTPFTFGSGTKLEIKAAGSSGSGSAAEAGITGTWSNQLGSTFIVTAGADGALTGTYESAVGNAESRYVLTGRYDSAPATDGSGTALGWTVAWKNNSKNAHSATTWSGQYVGGADAKINTQWLLTSGTTQANAWKSTLVGHDTFTKVKPSAASGARHHHHHH | – | – | – | binding ratio: molecules of ROBO1 bound to a tetramer (ROBO1): 2; change in ΔH compared with scFV (ROBO1): no significant change; reduction in affinity compared with scFV (ROBO1): approximately one order of magnitude; ΔS value compared with scFV (ROBO1): approximately 1/40; amount of enthalpy change (ΔH) (ROBO1; 25° C., PBS): -3.85 kcal/mol; amount of entropy change (ΔS) (ROBO1; 25° C., PBS): −22 J/mol·K; temperature for dissociation of a streptavidin domain tetramer [3]: not detected; temperature necessary for denaturation of the scFV domain (Tm) [3]: 51.4 °C; temperature necessary for the complete denaturation of a single molecule (Tm) [3]: 108 °C |

Further molecules by falling Kd [2], results first:

| Dissociation rate constant kd [2] | Kd [2] [pM] | Molecule | Association rate constant ka [2] | also measured |
| --- | --- | --- | --- | --- |
| 9.92 × 10^−5 S^−1 | 274 | mcSA114: mutant core streptavidin with Y22S, Y83A, R84K, E101D, R103K, E116N (protein) core streptavidin subunit: AEAGITGTWSNQLGSTFIVTAGADGALTGTYESAVGNAESRYVLTGRYDSAPATDGSGTALGWTVAWKNNAKNAHSATTWSGQYVGGADAKINTQWLLTSGTTNANAWKSTLVGHDTFTKVKPSAAS | 3.61 × 10^5 M^−1 S^−1 | – |
| 1.58 × 10^−4 S^−1 | 264 | mcSA314: mutant core streptavidin with Y22S, Y83S, R84K, E101D, R103K, E116N (protein) core streptavidin subunit: AEAGITGTWSNQLGSTFIVTAGADGALTGTYESAVGNAESRYVLTGRYDSAPATDGSGTALGWTVAWKNNSKNAHSATTWSGQYVGGADAKINTQWLLTSGTTNANAWKSTLVGHDTFTKVKPSAAS | 5.99 × 10^5 M^−1 S^−1 | thermal stability compared with native streptavidin [1]: thermal stability equivalent to that of the native streptavidin |
| 5.18 × 10^−5 S^−1 | 243 | mcSA414: mutant core streptavidin with Y22S, Y83S, R84K, E101D, R103K, E116Q (protein) core streptavidin subunit: AEAGITGTWSNQLGSTFIVTAGADGALTGTYESAVGNAESRYVLTGRYDSAPATDGSGTALGWTVAWKNNSKNAHSATTWSGQYVGGADAKINTQWLLTSGTTQANAWKSTLVGHDTFTKVKPSAAS | 2.31 × 10^5 M^−1 S^−1 | thermal stability compared with native streptavidin [1]: thermal stability equivalent to that of the native streptavidin |
| 8.96 × 10^−5 S^−1 | 225 | mcSA010: mutant core streptavidin with Y83A, R84K, E116N (protein) core streptavidin subunit: AEAGITGTWYNQLGSTFIVTAGADGALTGTYESAVGNAESRYVLTGRYDSAPATDGSGTALGWTVAWKNNAKNAHSATTWSGQYVGGAEARINTQWLLTSGTTNANAWKSTLVGHDTFTKVKPSAAS | – | – |
| 7.18 × 10^−5 S^−1 | 220 | mcSA324: mutant core streptavidin with Y22T, Y83S, R84K, E101D, R103K, E116N (protein) core streptavidin subunit: AEAGITGTWTNQLGSTFIVTAGADGALTGTYESAVGNAESRYVLTGRYDSAPATDGSGTALGWTVAWKNNSKNAHSATTWSGQYVGGADAKINTQWLLTSGTTNANAWKSTLVGHDTFTKVKPSAAS | 3.26 × 10^5 M^−1 S^−1 | – |
| 5.38 × 10^−5 S^−1 | 176 | mcSA124: mutant core streptavidin with Y22T, Y83A, R84K, E101D, R103K, E116N (protein) core streptavidin subunit: AEAGITGTWTNQLGSTFIVTAGADGALTGTYESAVGNAESRYVLTGRYDSAPATDGSGTALGWTVAWKNNAKNAHSATTWSGQYVGGADAKINTQWLLTSGTTNANAWKSTLVGHDTFTKVKPSAAS | 3.06 × 10^5 M^−1 S^−1 | – |
